From patent US20240425579A1 come the findings set out here.

Experiment [1] addresses T1, biotinylated hu-PDL2 (human) (UniProt Q9BQ51).
T1 sequence (biotinylated, looked up): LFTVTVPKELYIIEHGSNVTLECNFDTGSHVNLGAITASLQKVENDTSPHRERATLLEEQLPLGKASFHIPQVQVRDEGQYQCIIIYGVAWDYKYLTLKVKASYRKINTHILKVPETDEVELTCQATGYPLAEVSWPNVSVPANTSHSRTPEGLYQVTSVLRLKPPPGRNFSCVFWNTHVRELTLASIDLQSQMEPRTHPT
Put plainly: ELISA: construct coated at 1 µg/mL, varying biotinylated hu-PDL2, streptavidin-HRP. (In general: An ELISA detects its analyte on a solid surface through an enzyme-linked reagent.)

Experiment [2] concerns the target T1, biotinylated hu-PDL2 (human). Briefly: ELISA: varying concentrations of construct coated, fixed biotinylated hu-PDL2 (500 ng/mL).

pEC50: −log10 of the molar value.

Sequence of wild type PD1 construct (wild-type PD1 ECD comparator of anti-IL-23-PD1ecd) (heavy, part): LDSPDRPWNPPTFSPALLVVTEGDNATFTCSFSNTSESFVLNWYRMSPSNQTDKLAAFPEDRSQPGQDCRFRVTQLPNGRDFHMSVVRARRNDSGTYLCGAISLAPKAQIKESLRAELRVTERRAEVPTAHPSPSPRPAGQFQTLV

As a reminder, the pEC50 is the EC50 on a negative log10 scale, so that one unit is a factor of ten. For “wild type PD1 construct (wild-type PD1 ECD comparator of anti-IL-23-PD1ecd)”, the pEC50 in experiment [1] was 6.88; in experiment [2], 5.22.
